40 sequences from the nanobody polyreactivity screen of Harvey et al. (2022) can be followed below.

This series is described as follows: yeast display, Sf9 membrane polyspecificity reagent, FACS + sequencing; frameworks hold sequencing errors. In short, it runs like this: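 After 36–48 hours of galactose induction, yeast (Saccharomyces cerevisiae BJ5465) displaying a synthetic nanobody library were stained at 4 °C for 1 hour with 10% biotinylated, detergent-solubilized Sf9 membrane reagent. Streptavidin microbeads enriched the stained cells before FACS sorting into low and high (top ~1%) gates on anti-HA and streptavidin fluorescence. Each clone's polyreactivity label reflects its gate of origin.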
For the sequence “QVQLVESGGGLVQAGGSLRLSCAASGIIFGEYPMGWYRQAPGKERELVAAISWSGGSTYYADSVKGRFTISRDNAKNTVYLQMNSLKPEDTAVYYCNPLPDIVIGGIIGYDYWGQGTQVTVSS”, the “polyreactivity (PSR sort gate)” value was “high polyreactivity”.
For “QVQLVESGGGLVQAGGSLRLSCAASGIIFGFNAMGWYRQAPGKERELVAAINGDDSTYYADSVKGRFTISRDTAKNTVYFQMNSLKPEDTAVYYSAARYYRYLTFTGELLVYYWGQGTQVTVSS” the value was “low polyreactivity”.
The result for “QVQLVESGGGLVQAGGSLRLSCAASGIIFGFNAMGWYRQAPGKETELVAAINGDDSTYYADSVKGRFTISRDNAKNTVYLQMNSLKPEDTAVYYCAARYYRYLTFTGELLVYYWGQGTQVTVSS” reads “low polyreactivity”.
The result for “QVQLVESGGGLVQAGGSLRLSCAASGIIFGFYAMGWYRQAPGKERELVAAITSGGRTDYADSVKGRFTISRDNAKNTVYLQMNSLKPEDTAVYYCAAEFTYYGARWGYLGDLDYWGQGTQVTVSS” reads “high polyreactivity”.
In the case of “QVQLVESGGGLVQAGGSLRLSCAASGIIFGGNVMGWYRQAPGKERELVAAISGGGGRTHYADSVKGRFTISRDNAKNTVYLQMNSLKPEDTAVYYCAVVTRYRYDYWGQGTQVTVSS”, the “polyreactivity (PSR sort gate)” value is “high polyreactivity”.
For “QVQLVESGGGLVQAGGSLRLSCAASGIIFGIYDMGWYRQAPGKESELVAAIRRSGGSTYYADSVKGRFTISRDNAKNTVYLQMNSLKPEDTAVYYCAATRHSRVRGGDYWGQGTQVTVSS” the value was “low polyreactivity”; for “QVQLVESGGGLVQAGGSLRLSCAASGIIFGKYDMGWYRQAPGKERELVAAITSGTSTNYADSVKGRFTISRDNAKNTVYLQMNSLKPEDTAVYYCAADVYLYYPYFGHRRYNYWGQGTQVTVSS”, “high polyreactivity”; for “QVQLVESGGGLVQAGGSLRLSCAASGIIFGLNDMGWYRQAPGKERELVADITYSGGSTYYADSVKGRFTISRDNAKNTVYLQMNSLKPEDTAVYYCAADEVSFWGYIYDYWGQGTQVTVSS”, “high polyreactivity”.
“QVQLVESGGGLVQAGGSLRLSCAASGIIFGRNAMGWYRPAPGKERELVAVITGGGGRTYYADSVKGRFTISRDNAKKTVYLQMNSLKPEDTAVYYCNKDYRRNLAYFKEPGVPVDYWGQGTQVTVSS”: the “polyreactivity (PSR sort gate)” value was “low polyreactivity”.
For “QVQLVESGGGLVQAGGSLRLSCAASGIIFGRYAMGWYRQAPGKERELVAAINASGGSTYYADSVKGRFTISRDNAKNTVYLQMNSLKPEDTAVYYCATRSTRSRTSGYYYWGQGTQVTVSS” the value was “high polyreactivity”.
The result for “QVQLVESGGGLVQAGGSLRLSCAASGIIFGRYAMGWYRQAPGKERELVAAISTSGGSTYYADSVKGRFTISRDNAKNTVYLQMNSLKPEDTAVYYCAARHREAQRRYDYWGQGTQVTVSS” reads “high polyreactivity”.
Consider “QVQLVESGGGLVQAGGSLRLSCAASGIIFGRYTMGWSRQAPGKERELVAAITSSGITYYADSVKGRFTISRDNAKNTVYLQMNSLKPEDTAVYYCIADYSSPGYYWPYDYWGQGTQVTVSS”, for which the “polyreactivity (PSR sort gate)” value is recorded as “low polyreactivity”.
“QVQLVESGGGLVQAGGSLRLSCAASGIIFGRYTMGWYRQAPGKERELVAAITSSGITYYADSVKGRFTISRDNAKNTDYLQMNSLKPEDTAVYYCNADYSIPGYYWPYDYWGQGTQVTVSS”: the “polyreactivity (PSR sort gate)” value is “low polyreactivity”.
For “QVQLVESGGGLVQAGGSLRLSCAASGIIFGTNAMGWYRQAPGKERELVAYITSGGSTYADSVKGRFTISRDKAKNTVYLQMNSLKPEDTAVSYCNADTGKWGGNGWYEFDYWGQGTQVTVSS” the value was “low polyreactivity”; for “QVQLVESGGGLVQAGGSLRLSCAASGIIFHPYAMGWYRQAPGKERELVAVITWPGDSTYYADSVKGRFTISRDNAKNTVYLQMNSLKPEDTAVYYCNAAVEGSLNGYEYWGQGTQVTVSS”, “low polyreactivity”; for “QVQLVESGGGLVQAGGSLRLSCAASGIIFHYYAMGWYRQAPGKERDLVAAISGSGGSTYYADSVKGRFTISRDNAKNTVFLQMNSLKPEDTAVYYCAAILWGGGGYWGQGTQVTVSS”, “high polyreactivity”.
The result for “QVQLVESGGGLVQAGGSLRLSCAASGIIFIAYAMGWYRQAPGKERELVADISIGGSTNYADSVKGRFTISRDNAKNTVYLQMNSQKPEDTAVYYCNAGGGFYGSTVEHDYWGQGTQVTVSS” reads “low polyreactivity”; that for “QVQLVESGGGLVQAGGSLRLSCAASGIIFIFYDMGWYRQAPGKERELVATITSGTNTDADSVKGRFTISRDNAKNTVYLQMNSLKPEDTAVYYCAAGFSPASQLDYWGQGTQVTVSS”, “low polyreactivity”.
Regarding “QVQLVESGGGLVQAGGSLRLSCAASGIIFIGNAMGWYRQAPGKERELVAAITYTGGSTYYADSVKGRFTISRDNAKNTVYLQMNSLKPEDTAVYYCAVDRTHLEDDYWGQGTQVTVSS”, the “polyreactivity (PSR sort gate)” value is “low polyreactivity”.
As for “QVQLVESGGGLVQAGGSLRLSCAASGIIFIKYAMGWYRQAPGKERELVAAITSGGSTHYADSVKGRFTISRDNAKNTVYLQMNSLKPEDTAVYYCNADILRHVAYFKDRYQAGSYWGQGTQVTVSS”, the “polyreactivity (PSR sort gate)” value is given as “low polyreactivity”.
The result for “QVQLVESGGGLVQAGGSLRLSCAASGIIFITYAMGWYRQAPGKERELVAAITNSGGGTYYADSVKGRFTNSRDNAKNTVYLQMNSLKPEDTAVYYCAARKTAYGYRYDYWGQGTQVTVSS” reads “high polyreactivity”; that for “QVQLVESGGGLVQAGGSLRLSCAASGIIFIYYDMGWYRQAPGKERELVAAISRSGGSTYYADSVKGRFTISRDIAKNTFYLQMNSLKPEDTAVYYCAARRITSTDEYYWGHGTQVTVSS”, “high polyreactivity”; that for “QVQLVESGGGLVQAGGSLRLSCAASGIIFIYYTMGWYRQSPGKERELVAVITTSGDGTYYADSVKGRFTISRDNAKNTVYLQMNSLKPEDTAVYYCAASYSTWVSTRNDYWGQGTQVTVSS”, “low polyreactivity”.
For “QVQLVESGGGLVQAGGSLRLSCAASGIIFKGYDMGWYRQAPGKERELVAAISSGSTNYADSVKGRFTISRDNAKNTVYLQMNSLKPEDTAVYYCNKDSISYTWGYDYWGQGTQVTVSS” the value was “low polyreactivity”.
The result for “QVQLVESGGGLVQAGGSLRLSCAASGIIFKLNAMGWYRQAPGKEREFVAAITRRGGITFYADSVKGRFTISRDNAKNTVYLQMNSLKPEDTAVYYCAASPGRRRRPYASLIRYDYWGQGTQVTVSS” reads “high polyreactivity”.
Consider “QVQLVESGGGLVQAGGSLRLSCAASGIIFKNYAMGWYRQAPGKERELVAAISWRGGRTYYADSVKGRFTISRDNAKNTVYLQMNSLIPEDTAVYYCAKELYVSYRGGPWVDYWGQGTQVTVSS”, for which the “polyreactivity (PSR sort gate)” value is reported as “high polyreactivity”.
The result for “QVQLVESGGGLVQAGGSLRLSCAASGIIFKQNVMGWYRQAPGKERELVAAITSRDGSTYYADSVKGRFTISRDNAKNTVYLQMNSLKPEDTAVYYCAAKWRSPRYYLYGYWGQGTQVTVSS” reads “high polyreactivity”; that for “QVQLVESGGGLVQAGGSLRLSCAASGIIFKSYTMGWYRQAPGKERELVAAINSSGDRTYYADSVKGRFTISRDNAKNTVYLQMNSLKPEDTAVDYCAAAPVKKSRFRYDYWGQGTQVTVSS”, “high polyreactivity”.
For “QVQLVESGGGLVQAGGSLRLSCAASGIIFKYYAMGWSRQAPGKERELVAAISWTGDSTYADSVKGRFTISRDNAKNTVYLQMNSLKPEDTAVYYCAVAFRRVRSLGEGYWGQGTQVTVSS” the value was “low polyreactivity”.
The result for “QVQLVESGGGLVQAGGSLRLSCAASGIIFLDYVMGWYRQAPGKERELVAAINSGGSTYYADSVKGRFTISRDNAKNTVYLQMNSLKPEDTAVYYCAADDYYKFDYWGQGTQVTVSS” reads “low polyreactivity”; that for “QVQLVESGGGLVQAGGSLRLSCAASGIIFLNYAMGWYRQAPGKERELDAGITGRGGITYYTDSVKGRFTISRDNAKNTVYLQMNSLKPEDTAVYYCAARRYRFAGDYRMYYWGQGTQVTVSS”, “high polyreactivity”.
In the case of “QVQLVESGGGLVQAGGSLRLSCAASGIIFLWYAMGWYRQAPGKERELVAAITSGGSTYYADSVKGRFTISRDNAKNTVYLQMNSLKPEDTAVYYCAAVNGWRRVKRFDYWGQGTQVTVSS”, the “polyreactivity (PSR sort gate)” value is “high polyreactivity”.
The result for “QVQLVESGGGLVQAGGSLRLSCAASGIIFNPYALGWYRHAPGKERELVATISRGGRTNYADSVKGRFTISRDNAKNTVYLQLHSLKPEDTAVYYCNKTASGRYHYDYWGQGTQVTVSS” reads “low polyreactivity”.
For “QVQLVESGGGLVQAGGSLRLSCAASGIIFNSNAMGWYRQAPGKERELVAAISVSGGSTYYADSVKGRFTISRDNAKNTVYLQMYSLIPEDTAVYYCNARSLYPWRWKKEYGHWGQGTQVTVSS” the value was “high polyreactivity”; for “QVQLVESGGGLVQAGGSLRLSCAASGIIFNSYSMGLYRHAPGKERELVAAITYSGTRTYYADSVKGRFTISRDNAKNTVYLQMNCLKPEDTAVYYCNAVTGRGRTITQYDSWGQGTQVTVSS”, “high polyreactivity”.
For “QVQLVESGGGLVQAGGSLRLSCAASGIIFNTYAMGWYRQAPGKERELVAAIDSRDASTYADSVKGRFTISRDNAKNTVYLQMNSLKPEDTAVYYCAATHIVDLISEVYYWGQGTQVTVSS” the value was “low polyreactivity”; for “QVQLVESGGGLVQAGGSLRLSCAASGIIFNTYAMGWYRQAPGKERELVAAIDSRDASTYADSVKGRFTISRDNAKNTVYVQMNSLKPEDTAVYYCNARIESYWLDFDYWGQGTQVTVSS”, “low polyreactivity”.
“QVQLVESGGGLVQAGGSLRLSCAASGIIFPFYAMGWYRQAPGKEREFVAAITSGDDTYYADSVKGRFTISRDNAKNTVYLQMNSLKPEDTAVYYCNKRLYIAGYWPQLYYIMDYWGQGTQVTVSS”: the “polyreactivity (PSR sort gate)” value is recorded as “low polyreactivity”.
In the case of “QVQLVESGGGLVQAGGSLRLSCAASGIIFPGYAMGLYRQAPGKERELVAAISRSGASTYYADSVKGRFTISRDNAKNTVYLQMNSLKPEDTEVYYCAAEWYLGGEYRRYDYWGQGTQVTVSS”, the “polyreactivity (PSR sort gate)” value is “high polyreactivity”.
In the case of “QVQLVESGGGLVQAGGSLRLSCAASGIIFPNYAMGWYRPAPGKERELVAAIDDDASTTYADSVKGRFTISRDNAKNTVYLQMNSLKPEDTAVYYFAADGFDWYDWRWTYDYWGQGTQVTVSS”, the “polyreactivity (PSR sort gate)” value is reported as “high polyreactivity”.
